Test results as given in US20070161060A1 (published 2007).
Each block holds one molecule with its values, some of them ahead of it.

Columns and labels:
[1] = molecular target: AP2 adaptor protein complex (endogenous); test: cell-based or functional assay
[2] = molecular target: endogenous PIPKIγ of HEK293 cells (UniProt O60331); test: co-IP from HEK293 cells expressing the Myc-tagged tail
[3] = molecular target: AP2 adaptor protein complex (endogenous)
β-catenin = molecular target: T1, β-catenin (UniProt P35222 2-781); test: immunoprecipitation from HEK293 cells
T1 sequence (looked up): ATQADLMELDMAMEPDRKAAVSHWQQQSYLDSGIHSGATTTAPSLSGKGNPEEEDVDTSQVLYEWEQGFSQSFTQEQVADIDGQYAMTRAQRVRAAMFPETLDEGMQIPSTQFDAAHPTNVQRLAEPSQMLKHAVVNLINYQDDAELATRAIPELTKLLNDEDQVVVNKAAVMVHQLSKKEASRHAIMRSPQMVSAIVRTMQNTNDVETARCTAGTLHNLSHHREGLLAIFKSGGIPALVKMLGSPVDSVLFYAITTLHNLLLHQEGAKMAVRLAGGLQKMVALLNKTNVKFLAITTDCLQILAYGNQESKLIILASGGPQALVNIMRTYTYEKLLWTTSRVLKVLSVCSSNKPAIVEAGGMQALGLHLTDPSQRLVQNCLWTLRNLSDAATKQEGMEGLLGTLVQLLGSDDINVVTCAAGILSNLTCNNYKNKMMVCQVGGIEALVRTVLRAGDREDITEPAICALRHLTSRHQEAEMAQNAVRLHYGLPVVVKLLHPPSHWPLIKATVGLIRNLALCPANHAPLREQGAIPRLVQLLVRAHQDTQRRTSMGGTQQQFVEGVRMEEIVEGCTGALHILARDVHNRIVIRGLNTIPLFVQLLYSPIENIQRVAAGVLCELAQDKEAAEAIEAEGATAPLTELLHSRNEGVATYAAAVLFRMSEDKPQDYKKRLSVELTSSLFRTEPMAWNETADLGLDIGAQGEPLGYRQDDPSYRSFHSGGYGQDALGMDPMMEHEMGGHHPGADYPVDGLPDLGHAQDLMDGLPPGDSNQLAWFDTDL

Sequence of endogenous PIPKIγ of HEK293 cells (O60331 whole entry): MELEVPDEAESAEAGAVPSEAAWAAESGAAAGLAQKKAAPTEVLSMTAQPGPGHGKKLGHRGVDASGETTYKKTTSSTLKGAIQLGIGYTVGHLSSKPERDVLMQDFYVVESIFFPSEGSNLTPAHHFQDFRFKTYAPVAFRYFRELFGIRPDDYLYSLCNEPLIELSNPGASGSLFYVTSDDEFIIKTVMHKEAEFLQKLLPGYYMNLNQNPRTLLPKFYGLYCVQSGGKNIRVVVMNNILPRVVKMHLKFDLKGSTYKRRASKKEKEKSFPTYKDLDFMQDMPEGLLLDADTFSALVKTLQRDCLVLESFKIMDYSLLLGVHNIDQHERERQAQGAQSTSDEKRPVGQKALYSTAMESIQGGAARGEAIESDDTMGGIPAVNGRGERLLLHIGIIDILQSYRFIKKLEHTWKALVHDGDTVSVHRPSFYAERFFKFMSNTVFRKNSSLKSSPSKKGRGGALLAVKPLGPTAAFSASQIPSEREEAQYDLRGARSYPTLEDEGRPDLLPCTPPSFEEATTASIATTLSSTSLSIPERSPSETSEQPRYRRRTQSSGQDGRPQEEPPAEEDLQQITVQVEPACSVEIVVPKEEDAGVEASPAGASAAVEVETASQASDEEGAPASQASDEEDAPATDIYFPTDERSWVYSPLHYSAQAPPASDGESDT

- internalized ALEXA Fluor 647 transferrin, mean fluorescence intensity relative to nonexpressing cells (flow cytometry, MDCK) [1]: > 40 % increase
Molecule: HA-tagged wild-type PIPKIγ661 (from UniProt O70161 1-661) (enzyme)

- fold affinity against the monomer [2]: 10 fold
Molecule: c-Myc-tagged dimeric E-cadherin C-terminus (Myc-HR-ECDT) (from UniProt P12830 731-882)

B1: HA-tagged PIPKIγ635 (protein)
chain: MELEVPDEAESAEAGAVTAEAAWSAESGAAAGMTQKKAGLAEAPLVTGQPGPGHGKKLGHRGVDASGETTYKKTTSSTLKGAIQLGIGYTVGNLSSKPERDVLMQDFYVVESIFFPSEGSNLTPAHHFQDFRFKTYAPVAFRYFRELFGIRPDDYLYSLCNEPLIELSNPGASGSVFYVTSDDEFIIKTVMHKEAEFLQKLLPGYYMNLNQNPRTLLPKFYGLYCVQSGGKNIRVVVMNNVLPRVVKMHLKFDLKGSTYKRRASKKEKEKSLPTYKDLDFMQDMPEGLLLDSDTFGALVKTLQRDCLVLESFKIMDYSLLLGVHNIDQQERERQAEGAQSKADEKRPVAQKALYSTAMESIQGGAARGEAIETDDTMGGIPAVNGRGERLLLHIGIIDILQSYRFIKKLEHTWKALVHDGDTVSVHRPSFYAERFFKFMSSTVFRKSSSLKSSPSKKGRGALLAVKPLGPTAAFSASQIPSEREDVQYDLRGARSYPTLEDEGRPDLLPCTPPSFEEATTASIATTLSSTSLSIPERSPSDTSEQPRYRRRTQSSGQDGRPQEEPHAEDLQKITVQVEPVCGVGVVPKEEGAGVEVPPCGASAAASVEIDAASQASEPASQASDEEDAPSTDIYF
- transferrin endocytosis (MDCK stable line) [3]: had no appreciable effect on transferrin endocytosis

- binding result (β-catenin): binds
B2: E-cadherin Val832Met (receptor, UniProt P12830 155-882, looked up)
chain: DWVIPPISCPENEKGPFPKNLVQIKSNKDKEGKVFYSITGQGADTPPVGVFIIERETGWLKVTEPLDRERIATYTLFSHAVSSNGNAVEDPMEILITVTDQNDNKPEFTQEVFKGSVMEGALPGTSVMEVTATDADDDVNTYNAAIAYTILSQDPELPDKNMFTINRNTGVISVVTTGLDRESFPTYTLVVQAADLQGEGLSTTATAVITVTDTNDNPPIFNPTTYKGQVPENEANVVITTLKVTDADAPNTPAWEAVYTILNDDGGQFVVTTNPVNNDGILKTAKGLDFEAKQQYILHVAVTNVVPFEVSLTTSTATVTVDVLDVNEAPIFVPPEKRVEVSEDFGVGQEITSYTAQEPDTFMEQKITYRIWRDTANWLEINPDTGAISTRAELDREDFEHVKNSTYTALIIATDNGSPVATGTGTLLLILSDVNDNAPIPEPRTIFFCERNPKPQVINIIDADLPPNTSPFTAELTHGASANWTIQYNDPTQESIILKPKMALEVGDYKINLKLMDNQNKDQVTTLEVSVCDCEGAAGVCRKAQPVEAGLQIPAILGILGGILALLILILLLLLFLRRRAVVKEPLLPPEDDTRDNVYYYDEEGGGEEDQDFDLSQLHRGLDARPEVTRNDVAPTLMSVPRYLPRPANPDEIGNFIDENLKAADTDPTAPPYDSLLMFDYEGSGSEAASLSSLNSSESDKDQDYDYLNEWGNRFKKLADMYGGGEDD
notes: whole, on cells; Expressed in HEK293 cells and co-immunoprecipitated from lysates; also called Val832Met E-cadherin mutant
